Assay results published in patent publication US20140295495A1 (Biogen, published 2014).

T1: human antigen that binds to mAb1 (human, UniProt Q96FE5 42-538, limits assumed)
T1 sequence (looked up): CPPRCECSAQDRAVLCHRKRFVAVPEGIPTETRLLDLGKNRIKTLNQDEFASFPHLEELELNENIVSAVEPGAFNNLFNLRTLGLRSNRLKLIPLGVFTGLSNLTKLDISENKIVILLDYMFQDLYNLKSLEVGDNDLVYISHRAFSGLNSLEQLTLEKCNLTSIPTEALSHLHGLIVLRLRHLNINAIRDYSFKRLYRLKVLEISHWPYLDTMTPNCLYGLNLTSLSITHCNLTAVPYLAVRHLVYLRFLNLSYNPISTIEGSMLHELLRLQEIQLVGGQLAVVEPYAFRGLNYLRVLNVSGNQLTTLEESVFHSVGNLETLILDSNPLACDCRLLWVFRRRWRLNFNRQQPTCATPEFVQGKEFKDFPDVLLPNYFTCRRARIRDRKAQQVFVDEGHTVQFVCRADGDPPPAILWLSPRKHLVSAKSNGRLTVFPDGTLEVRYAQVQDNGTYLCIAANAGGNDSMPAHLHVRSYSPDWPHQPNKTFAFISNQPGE


Molecular target: T1, human antigen that binds to mAb1
Test: direct binding ELISA, antigen coated on the plate, detection with AP-anti-human Fab
Method: Plates were washed 3 times with 350 μL of PBS using a plate washer and blocked with 1% BSA, 0.1% ovalbumin, and 0.1% non-fat dry milk in Hank's balanced salt buffer containing 25 mM HEPES (pH 7.0) for 1 hour at room temperature. Plates were then washed again, and incubated for 1 h with a 3-fold dilution series set up for each test compound (50 μL/well, 8 dilutions) starting at 10 μg/mL and all in 0.1% BSA, 0.1% ovalbumin, and 0.1% non-fat dry milk in Hank's balanced salt buffer containing 25 mM HEPES (pH 7.0), and again washed. […] Plates were read at 405 nm on a Molecular Devices plate reader. EC₅₀ values for binding were calculated from the titration curve using prism software.

Binder | EC50 [nM]
mAb1-C (mAb1, anti-LINGO-1 antibody Li81, aglycosyl human IgG1; preparation with 39% trisulfide at the LC5-HC5 linkage) (antibody, V domains shown, 39% trisulfide at the LC5-HC5 linkage (heavy-light interchain Cys linkage)) VH: EVQLLESGGGLVQPGGSLRLSCAASGFTFSAYEMKWVRQAPGKGLEWVSVIGPSGGFTFYADSVKGRFTISRDNSKNTLYLQMNSLRAEDTAVYYCATEGDNDAFDIWGQGTTVTVSS VL: DIQMTQSPATLSLSPGERATLSCRASQSVSSYLAWYQQKPGQAPRLLIYDASNRATGIPARFSGSGSGTDFTLTISSLEPEDFAVYYCQQRSNWPMYTFGQGTKLEIK | 0.02
mAb1-A (mAb1, anti-LINGO-1 antibody Li81, aglycosyl human IgG1; preparation with about 0.5% trisulfide at the LC5-HC5 linkage) (antibody, V domains shown, about 0.5% trisulfide at the LC5-HC5 linkage (heavy-light interchain Cys linkage), also called mAb-A) VH: EVQLLESGGGLVQPGGSLRLSCAASGFTFSAYEMKWVRQAPGKGLEWVSVIGPSGGFTFYADSVKGRFTISRDNSKNTLYLQMNSLRAEDTAVYYCATEGDNDAFDIWGQGTTVTVSS VL: DIQMTQSPATLSLSPGERATLSCRASQSVSSYLAWYQQKPGQAPRLLIYDASNRATGIPARFSGSGSGTDFTLTISSLEPEDFAVYYCQQRSNWPMYTFGQGTKLEIK | 0.02
